# In article PMC9482650, “Quantitative fragmentomics allow affinity mapping of interactomes” (Nature Communications, 2022):
# T1: PCLO, Q9Y6V0
# T1 sequence (Q9Y6V0 4491-4600, limits assumed, looked up): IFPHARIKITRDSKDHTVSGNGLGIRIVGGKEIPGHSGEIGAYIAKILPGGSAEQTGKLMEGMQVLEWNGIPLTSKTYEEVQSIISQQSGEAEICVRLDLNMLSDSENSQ
# T2: APBA1_1, Q02410
# T2 sequence (Q02410 651-752, limits assumed, looked up): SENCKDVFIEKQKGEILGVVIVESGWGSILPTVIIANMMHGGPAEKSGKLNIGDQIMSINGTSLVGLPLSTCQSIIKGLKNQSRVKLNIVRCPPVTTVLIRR
# T3: MPDZ_10, O75970
# T3 sequence (O75970 1624-1722, limits assumed, looked up): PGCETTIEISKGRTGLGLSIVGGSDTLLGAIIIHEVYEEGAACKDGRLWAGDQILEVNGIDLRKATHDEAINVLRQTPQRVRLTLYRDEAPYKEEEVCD
# T4: TIAM2, Q8IVF5
# T4 sequence (Q8IVF5 885-986, limits assumed, looked up): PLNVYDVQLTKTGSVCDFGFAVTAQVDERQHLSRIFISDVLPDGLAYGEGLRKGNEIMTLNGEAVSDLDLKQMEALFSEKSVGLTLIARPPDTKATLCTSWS
# T5: GRIP1_2, Q9Y3R0
# T5 sequence (Q9Y3R0 145-248, limits assumed, looked up): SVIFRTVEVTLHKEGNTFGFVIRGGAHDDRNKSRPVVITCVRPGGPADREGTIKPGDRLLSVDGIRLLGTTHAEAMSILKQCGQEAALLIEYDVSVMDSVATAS
# T6: NHERF3_1, Q5T2W1
# T6 sequence (Q5T2W1 4-100, limits assumed, looked up): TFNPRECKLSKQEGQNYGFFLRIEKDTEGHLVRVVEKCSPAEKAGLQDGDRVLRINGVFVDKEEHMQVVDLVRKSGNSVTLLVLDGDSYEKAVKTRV
# T7: GRIP1_3, Q9Y3R0
# T7 sequence (Q9Y3R0 247-346, limits assumed, looked up): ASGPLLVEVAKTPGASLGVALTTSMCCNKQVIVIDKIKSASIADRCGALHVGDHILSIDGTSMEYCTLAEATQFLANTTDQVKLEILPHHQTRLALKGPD
# T8: RADIL, Q96JH8
# T8 sequence (Q96JH8 971-1071, limits assumed, looked up): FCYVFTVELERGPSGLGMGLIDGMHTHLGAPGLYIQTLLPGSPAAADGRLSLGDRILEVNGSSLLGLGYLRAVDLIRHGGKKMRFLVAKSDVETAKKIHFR
# T9: LIN7A, O14910
# T9 sequence (O14910 103-200, limits assumed, looked up): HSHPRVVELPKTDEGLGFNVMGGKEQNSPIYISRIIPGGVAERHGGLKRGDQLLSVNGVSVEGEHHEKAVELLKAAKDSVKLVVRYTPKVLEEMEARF
# T10: GRIP1_7, Q9Y3R0
# T10 sequence (Q9Y3R0 999-1096, limits assumed, looked up): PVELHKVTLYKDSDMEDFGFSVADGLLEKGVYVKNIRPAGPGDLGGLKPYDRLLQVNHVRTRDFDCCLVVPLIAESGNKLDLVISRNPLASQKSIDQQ
# Experiments:
# Experiment in all cases: holdup assay
# Design in all cases: key: below the threshold = too weak to quantify, mostly under pKd 3.1 to 4
# DLG2_3, Q15700 = molecular target: DLG2_3, Q15700
# PCLO, Q9Y6V0 = molecular target: T1, PCLO, Q9Y6V0
# APBA1_1, Q02410 = molecular target: T2, APBA1_1, Q02410
# DLG1_3, Q12959 = molecular target: DLG1_3, Q12959
# AHNAK1, Q09666 = molecular target: AHNAK1, Q09666
# AHNAK1, Q09666, sequence (Q09666 4-100): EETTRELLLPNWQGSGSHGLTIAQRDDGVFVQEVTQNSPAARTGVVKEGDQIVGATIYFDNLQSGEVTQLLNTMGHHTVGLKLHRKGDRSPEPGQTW
# GOPC, Q9HD26 = molecular target: GOPC, Q9HD26
# MPDZ_10, O75970 = molecular target: T3, MPDZ_10, O75970
# GRID2IP_1, A4D2P6 = molecular target: GRID2IP_1, A4D2P6
# GRID2IP_1, A4D2P6, sequence (A4D2P6 1-87): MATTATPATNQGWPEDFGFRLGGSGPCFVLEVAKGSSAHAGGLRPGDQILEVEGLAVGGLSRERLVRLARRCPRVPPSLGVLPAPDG
# TIAM2, Q8IVF5 = molecular target: T4, TIAM2, Q8IVF5
# GORASP2, Q9H8Y8 = molecular target: GORASP2, Q9H8Y8
# SCRIB_3, Q14160 = molecular target: SCRIB_3, Q14160
# SCRIB_3, Q14160, sequence (Q14160 999-1103): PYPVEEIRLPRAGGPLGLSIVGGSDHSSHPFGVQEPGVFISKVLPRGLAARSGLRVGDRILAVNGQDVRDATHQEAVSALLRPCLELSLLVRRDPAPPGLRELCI
# GRIP1_2, Q9Y3R0 = molecular target: T5, GRIP1_2, Q9Y3R0
# DLG1_1, Q12959 = molecular target: DLG1_1, Q12959
# NHERF3_1, Q5T2W1 = molecular target: T6, NHERF3_1, Q5T2W1
# TJP1_3, Q07157 = molecular target: TJP1_3, Q07157
# TJP1_3, Q07157, sequence (Q07157 416-512): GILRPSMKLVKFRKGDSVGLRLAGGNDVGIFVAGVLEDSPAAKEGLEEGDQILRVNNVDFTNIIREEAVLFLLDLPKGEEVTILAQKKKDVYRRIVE
# GRIP1_3, Q9Y3R0 = molecular target: T7, GRIP1_3, Q9Y3R0
# Inadl_1, Q8NI35 = molecular target: Inadl_1, Q8NI35
# Inadl_1, Q8NI35, sequence (Q8NI35 113-229): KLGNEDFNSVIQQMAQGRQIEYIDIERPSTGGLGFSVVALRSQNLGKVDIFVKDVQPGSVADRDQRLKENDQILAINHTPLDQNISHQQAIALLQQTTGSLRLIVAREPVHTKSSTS
# MAGI2_2, Q86UL8 = molecular target: MAGI2_2, Q86UL8
# MAGI2_2, Q86UL8, sequence (Q86UL8 410-522): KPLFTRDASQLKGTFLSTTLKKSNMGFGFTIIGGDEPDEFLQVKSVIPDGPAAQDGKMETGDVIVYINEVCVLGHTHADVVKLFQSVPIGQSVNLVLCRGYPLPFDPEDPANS
# GIPC2, Q8TF65 = molecular target: GIPC2, Q8TF65
# GIPC2, Q8TF65, sequence (Q8TF65 112-203): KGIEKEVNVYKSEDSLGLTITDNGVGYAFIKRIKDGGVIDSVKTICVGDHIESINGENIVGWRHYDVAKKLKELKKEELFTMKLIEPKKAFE
# GRIP2_7, Q9C0E4 = molecular target: GRIP2_7, Q9C0E4
# GRIP2_7, Q9C0E4, sequence (Q9C0E4 934-1023): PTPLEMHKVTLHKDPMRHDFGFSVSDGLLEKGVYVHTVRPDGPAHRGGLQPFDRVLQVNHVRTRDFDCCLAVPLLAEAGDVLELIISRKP
# LDB3, O75112 = molecular target: LDB3, O75112
# LDB3, O75112, sequence (O75112 1-94): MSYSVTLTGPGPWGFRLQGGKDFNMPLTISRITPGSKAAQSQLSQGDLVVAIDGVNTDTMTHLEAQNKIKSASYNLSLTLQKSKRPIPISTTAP
# RADIL, Q96JH8 = molecular target: T8, RADIL, Q96JH8
# TJP1_2, Q07157 = molecular target: TJP1_2, Q07157
# TJP1_2, Q07157, sequence (Q07157 181-274): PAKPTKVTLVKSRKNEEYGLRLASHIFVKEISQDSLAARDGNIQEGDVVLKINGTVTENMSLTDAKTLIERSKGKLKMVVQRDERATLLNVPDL
# MAGI2_3, Q86UL8 = molecular target: MAGI2_3, Q86UL8
# MAGI2_3, Q86UL8, sequence (Q86UL8 600-682): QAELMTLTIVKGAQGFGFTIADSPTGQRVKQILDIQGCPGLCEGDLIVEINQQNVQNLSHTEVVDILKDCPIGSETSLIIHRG
# NHERF4_4, Q86UT5 = molecular target: NHERF4_4, Q86UT5
# NHERF4_4, Q86UT5, sequence (Q86UT5 464-550): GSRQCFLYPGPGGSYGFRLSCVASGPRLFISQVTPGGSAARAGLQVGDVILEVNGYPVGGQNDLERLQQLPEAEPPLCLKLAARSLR
# LIN7A, O14910 = molecular target: T9, LIN7A, O14910
# GRIP1_7, Q9Y3R0 = molecular target: T10, GRIP1_7, Q9Y3R0
# DLG2_2, Q15700 = molecular target: DLG2_2, Q15700
# [1] = plain residues with an end cap or a label only (N-terminal biotin on a linker: ado-ado)
# [2] = plain residues with an end cap or a label only (N-terminal biotin on a linker: (peg)3)
binder,measurement,setting,value
"EDPRVEVTQF [SLC22A9, Q8IVM8]",pKd,"DLG2_3, Q15700; [1]",3.71
same,pKd,"PCLO, Q9Y6V0; [1]",below the threshold
same,pKd,"APBA1_1, Q02410; [1]",below the threshold
same,pKd,"DLG1_3, Q12959; [1]",below the threshold
same,pKd,"AHNAK1, Q09666; [1]",below the threshold
same,pKd,"GOPC, Q9HD26; [1]",below the threshold
same,pKd,"MPDZ_10, O75970; [1]",below the threshold
same,pKd,"GRID2IP_1, A4D2P6; [1]",below the threshold
same,pKd,"TIAM2, Q8IVF5; [1]",4.15
same,pKd,"GORASP2, Q9H8Y8; [1]",below the threshold
same,pKd,"SCRIB_3, Q14160; [1]",3.66
same,pKd,"GRIP1_2, Q9Y3R0; [1]",below the threshold
same,pKd,"DLG1_1, Q12959; [1]",below the threshold
same,pKd,"NHERF3_1, Q5T2W1; [1]",4.58
same,pKd,"TJP1_3, Q07157; [1]",below the threshold
same,pKd,"GRIP1_3, Q9Y3R0; [1]",below the threshold
same,pKd,"Inadl_1, Q8NI35; [1]",below the threshold
same,pKd,"MAGI2_2, Q86UL8; [1]",below the threshold
same,pKd,"GIPC2, Q8TF65; [1]",below the threshold
same,pKd,"GRIP2_7, Q9C0E4; [1]",below the threshold
same,pKd,"LDB3, O75112; [1]",below the threshold
same,pKd,"RADIL, Q96JH8; [1]",below the threshold
same,pKd,"TJP1_2, Q07157; [1]",below the threshold
same,pKd,"MAGI2_3, Q86UL8; [1]",below the threshold
same,pKd,"NHERF4_4, Q86UT5; [1]",below the threshold
same,pKd,"LIN7A, O14910; [1]",below the threshold
same,pKd,"GRIP1_7, Q9Y3R0; [1]",below the threshold
same,pKd,"DLG2_2, Q15700; [1]",below the threshold
"QQSMSSADSTQA [SARS-Cov2-N, P0DTC9]",pKd,"DLG2_3, Q15700; [2]",below the threshold
same,pKd,"PCLO, Q9Y6V0; [2]",below the threshold
same,pKd,"APBA1_1, Q02410; [2]",below the threshold
same,pKd,"DLG1_3, Q12959; [2]",below the threshold
same,pKd,"AHNAK1, Q09666; [2]",below the threshold
same,pKd,"GOPC, Q9HD26; [2]",below the threshold
same,pKd,"MPDZ_10, O75970; [2]",below the threshold
same,pKd,"GRID2IP_1, A4D2P6; [2]",below the threshold
same,pKd,"TIAM2, Q8IVF5; [2]",below the threshold
same,pKd,"GORASP2, Q9H8Y8; [2]",below the threshold
same,pKd,"SCRIB_3, Q14160; [2]",below the threshold
same,pKd,"GRIP1_2, Q9Y3R0; [2]",below the threshold
same,pKd,"DLG1_1, Q12959; [2]",below the threshold
same,pKd,"NHERF3_1, Q5T2W1; [2]",below the threshold
same,pKd,"TJP1_3, Q07157; [2]",below the threshold
same,pKd,"GRIP1_3, Q9Y3R0; [2]",below the threshold
same,pKd,"Inadl_1, Q8NI35; [2]",below the threshold
same,pKd,"MAGI2_2, Q86UL8; [2]",below the threshold
same,pKd,"GIPC2, Q8TF65; [2]",below the threshold
same,pKd,"GRIP2_7, Q9C0E4; [2]",below the threshold
same,pKd,"LDB3, O75112; [2]",below the threshold
same,pKd,"RADIL, Q96JH8; [2]",below the threshold
same,pKd,"TJP1_2, Q07157; [2]",below the threshold
same,pKd,"MAGI2_3, Q86UL8; [2]",below the threshold
same,pKd,"NHERF4_4, Q86UT5; [2]",below the threshold
same,pKd,"LIN7A, O14910; [2]",below the threshold
same,pKd,"GRIP1_7, Q9Y3R0; [2]",below the threshold
same,pKd,"DLG2_2, Q15700; [2]",below the threshold
"LAHVKHKEQI [AQP3, Q92482]",pKd,"DLG2_3, Q15700; [1]",below the threshold
same,pKd,"PCLO, Q9Y6V0; [1]",below the threshold
same,pKd,"APBA1_1, Q02410; [1]",below the threshold
same,pKd,"DLG1_3, Q12959; [1]",below the threshold
same,pKd,"AHNAK1, Q09666; [1]",below the threshold
same,pKd,"GOPC, Q9HD26; [1]",below the threshold
same,pKd,"MPDZ_10, O75970; [1]",below the threshold
same,pKd,"GRID2IP_1, A4D2P6; [1]",below the threshold
same,pKd,"TIAM2, Q8IVF5; [1]",below the threshold
same,pKd,"GORASP2, Q9H8Y8; [1]",below the threshold
same,pKd,"SCRIB_3, Q14160; [1]",below the threshold
same,pKd,"GRIP1_2, Q9Y3R0; [1]",below the threshold
same,pKd,"DLG1_1, Q12959; [1]",below the threshold
same,pKd,"NHERF3_1, Q5T2W1; [1]",below the threshold
same,pKd,"TJP1_3, Q07157; [1]",below the threshold
same,pKd,"GRIP1_3, Q9Y3R0; [1]",below the threshold
same,pKd,"Inadl_1, Q8NI35; [1]",below the threshold
same,pKd,"MAGI2_2, Q86UL8; [1]",below the threshold
same,pKd,"GIPC2, Q8TF65; [1]",below the threshold
same,pKd,"GRIP2_7, Q9C0E4; [1]",below the threshold
same,pKd,"LDB3, O75112; [1]",below the threshold
same,pKd,"RADIL, Q96JH8; [1]",below the threshold
same,pKd,"TJP1_2, Q07157; [1]",below the threshold
same,pKd,"MAGI2_3, Q86UL8; [1]",below the threshold
same,pKd,"NHERF4_4, Q86UT5; [1]",below the threshold
same,pKd,"LIN7A, O14910; [1]",below the threshold
same,pKd,"GRIP1_7, Q9Y3R0; [1]",below the threshold
same,pKd,"DLG2_2, Q15700; [1]",below the threshold
